Assay results: patent US20210032312A1 (Janssen / Centocor, published 2021)
Changes are numbered by the printed parent chain. One block for each binder: values may come before it.

Experiments:
[1] = molecular target: T1, human CD8 alpha (CD8A) on primary human CD8+ T cells (human, UniProt P01732 22-235); assay: flow cytometry, human CD8+ T cells, 2 uM FN3
T1 construct: whole, on cells; also called hCD8A
T1 sequence (P01732 22-235): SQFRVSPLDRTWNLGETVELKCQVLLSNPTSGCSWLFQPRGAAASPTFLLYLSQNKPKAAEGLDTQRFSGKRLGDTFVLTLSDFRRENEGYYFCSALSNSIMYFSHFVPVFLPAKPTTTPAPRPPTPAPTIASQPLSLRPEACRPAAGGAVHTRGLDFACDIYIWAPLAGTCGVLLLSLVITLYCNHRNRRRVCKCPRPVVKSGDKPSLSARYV

[2] = molecular target: T2, cynomolgus monkey CD8A on primary cynomolgus monkey CD8+ T cells (cynomolgus monkey, UniProt P01732 23-235 (human entry)); assay: flow cytometry, cyno CD8+ T cells, 2 uM FN3
T2 construct: also called Cyno CD8alpha
T2 sequence (P01732 other isoform, or with tags, fused parts or gaps limits assumed): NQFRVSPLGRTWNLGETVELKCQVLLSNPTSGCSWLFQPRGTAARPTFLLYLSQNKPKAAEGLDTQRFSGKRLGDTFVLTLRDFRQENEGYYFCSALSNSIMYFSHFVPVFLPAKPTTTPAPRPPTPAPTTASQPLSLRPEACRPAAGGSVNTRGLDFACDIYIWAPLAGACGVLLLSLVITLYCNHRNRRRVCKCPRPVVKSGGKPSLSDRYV

[3] = molecular target: T2, cynomolgus monkey CD8A on primary …; assay: flow cytometry, cyno CD8+ T cells, 0.2 uM FN3
[4] = molecular target: T1, human CD8 alpha (CD8A) on primary human …; assay: flow cytometry, human CD8+ T cells, 0.2 uM FN3
In house human CD8A-Fc = molecular target: T3, In house human CD8A-Fc (human, UniProt P01732 22-182, limits assumed); assay: SPR (ProteOn), captured hCD8A-Fc
T3 construct: Captured on goat anti-human Fc on a ProteOn GLC chip; also called hCD8A-Fc; recombinant human CD8 alpha; not shown: linker with flag (and polyhistidine) tag and Fc of human IgG1
T3 sequence (P01732 22-182 limits assumed): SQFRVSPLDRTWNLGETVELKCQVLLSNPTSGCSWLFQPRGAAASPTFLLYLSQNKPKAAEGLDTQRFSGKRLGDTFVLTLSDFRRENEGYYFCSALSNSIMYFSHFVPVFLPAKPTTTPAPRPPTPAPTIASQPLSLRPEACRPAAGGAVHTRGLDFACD

[5] = molecular target: T4, cynomolgus monkey CD8 alpha on primary cynomolgus CD8+ T cells (cynomolgus monkey, UniProt P01732 23-235 (human entry)); assay: flow cytometry, cyno CD8+ T cells
T4 construct: also called Cyno CD8alpha; cyno CD8A
T4 sequence (P01732 other isoform, or with tags, fused parts or gaps limits assumed): as the sequence (P01732 other isoform, or with tags, fused parts or gaps limits assumed) above
Method: (§1) Binding of the 190 ELISA hits to human and cynomologous monkey primary CD8 T cells was assessed by flow cytometry. The FN3 domain molecules were diluted to 2 μM and 0.2 μM in PBS and incubated with human or cynomologous monkey CD8+ T cells in 96-well format. After 1 hour at 4 C, the cells were washed once with PBS and then resuspended with an anti-FN3 domain antibody (PAB25) solution. Following this incubation, the cells were washed twice with PBS and a PE conjugated secondary antibody and a viability dye were added. Finally, cells were washed and resuspended in PBS for flow cytometric analysis using a BD Canto Instrument. Cells were gating on live cells and median fluorescence intensity of the bound Centyrins (PE channel) was calculated using Cytobank software.

[6] = molecular target: T5, human CD8 alpha (CD8A) on primary human CD8+ T cells (human, UniProt P01732 22-235); assay: flow cytometry, human CD8+ T cells
T5 construct: whole, on cells; also called hCD8A
Method: as §1
T5 sequence (P01732 22-235): as the sequence (P01732 22-235) above

human CD8A-Fc (in house) = molecular target: T6, human CD8A-Fc (in house) (human, UniProt P01732 22-182, limits assumed); assay: SPR (ProteOn), captured hCD8A-Fc
T6 construct: captured by goat anti-human Fc on the ProteOn chip; also called hCD8A-Fc; recombinant human CD8 alpha; not shown: linker/tag and Fc of human IgG1
T6 sequence (P01732 22-182 limits assumed): as the sequence (P01732 22-182 limits assumed) above

Human T-cell Binding 2 uM (MFI) [1]: 16000 MFI | Cyno T-cell Binding 2 uM (MFI) [2]: 17500 MFI | Cyno T-cell Binding 0.2 uM (MFI) [3]: 5690 MFI | Human T-cell Binding 0.2 uM (MFI) [4]: 4150 MFI | koff (In house human CD8A-Fc): 0.00109 s⁻¹
B1: P283AR9P1362_C6 (designed binder)
chain: LPAPKNLVVSRVTEDSARLSWYPSDPPFDSFLIQYQESEKVGEAIVLTVPGSERSYDLTGLKPGTEYTVSIYGVPNYHSRRSYYYSNPLSAIFTT
notes: FN3 domain

Human T-cell Binding 2 uM (MFI) [1]: 7000 MFI | Cyno T-cell Binding 2 uM (MFI) [2]: 1700 MFI | Cyno T-cell Binding 0.2 uM (MFI) [3]: 353 MFI | Human T-cell Binding 0.2 uM (MFI) [4]: 1110 MFI | koff (In house human CD8A-Fc): 0.00114 s⁻¹
B2: P282FR9P1361_F7 (designed binder)
chain: LPAPKNLVVSRVTEDSARLSWTAPDAAFDSFPIWYREYATGEAIVLTVPGSERSYDLTGLKPGTEYDVVITGVKGGYPSYPLSAIFTT
notes: FN3 domain

Human T-cell Binding 2 uM (MFI) [1]: 11300 MFI | Cyno T-cell Binding 2 uM (MFI) [2]: 24200 MFI | Cyno T-cell Binding 0.2 uM (MFI) [3]: 3450 MFI | Human T-cell Binding 0.2 uM (MFI) [4]: 2540 MFI | koff (In house human CD8A-Fc): 0.000353 s⁻¹
B3: P283BR9P1363_A8 (designed binder)
chain: LPAPKNLVVSRVTEDSARLSWVRSDTARFFDSFLIQYQESEKVGEAIVLTVPGSERSYDLTGLKPGTEYTVSIYGVDVKYDIDSRPISSNPLSAIFTT
notes: FN3 domain

Cyno T-cell Binding 0.2 uM (MFI) [5]: 5510 MFI | Cyno T-cell Binding 2 uM (MFI) [5]: 59300 MFI | Human T-cell Binding 0.2 uM (MFI) [6]: 1180 MFI | Human T-cell Binding 2 uM (MFI) [6]: 14300 MFI | koff (human CD8A-Fc (in house)): 0.000756 s⁻¹
B4: P283DR9P1364_E8 (designed binder)
chain: LPAPKNLVVSRVTEDSARLSWTAPDAAFDSFSIAYPEWPVHGEAIVLTVPGSERSYDLTGLKPGTEYFVIIYGVKGGVLSEPLSAIFTT
notes: FN3 domain

Cyno T-cell Binding 0.2 uM (MFI) [5]: 1590 MFI | Cyno T-cell Binding 2 uM (MFI) [5]: 22900 MFI | Human T-cell Binding 0.2 uM (MFI) [6]: 451 MFI | Human T-cell Binding 2 uM (MFI) [6]: 4260 MFI | koff (human CD8A-Fc (in house)): 0.0013 s⁻¹
B5: P283DR9P1364_B11 (designed binder)
chain: B4 chain with S32Y, A34S, P39E, V40Q, H41L, I70V, V78A, E81A
notes: FN3 domain

Cyno T-cell Binding 0.2 uM (MFI) [5]: 365 MFI | Cyno T-cell Binding 2 uM (MFI) [5]: 2480 MFI | Human T-cell Binding 0.2 uM (MFI) [6]: 244 MFI | Human T-cell Binding 2 uM (MFI) [6]: 656 MFI | koff (human CD8A-Fc (in house)): 0.00661 s⁻¹
B6: P283DR9P1364_D8 (designed binder)
chain: B4 chain with S32Q, W38T, V40I, H41Q, Y72H, V78I, L79T, E81F
notes: FN3 domain

Cyno T-cell Binding 0.2 uM (MFI) [5]: 746 MFI | Cyno T-cell Binding 2 uM (MFI) [5]: 8620 MFI | Human T-cell Binding 0.2 uM (MFI) [6]: 666 MFI | Human T-cell Binding 2 uM (MFI) [6]: 1480 MFI | koff (human CD8A-Fc (in house)): 0.00156 s⁻¹
B7: P283DR9P1364_B1 (designed binder)
chain: B4 chain with S32Y, A34T, W38I, V40L, H41G, I70V, V78L, E81S
notes: FN3 domain

Cyno T-cell Binding 0.2 uM (MFI) [5]: 2640 MFI | Cyno T-cell Binding 2 uM (MFI) [5]: 39900 MFI | Human T-cell Binding 0.2 uM (MFI) [6]: 435 MFI | Human T-cell Binding 2 uM (MFI) [6]: 8980 MFI | koff (human CD8A-Fc (in house)): 0.00197 s⁻¹
B8: P283DR9P1364_A7 (designed binder)
chain: B4 chain with S32R, H41R, E43D, F68W, Y72Q, V78T, L79D, E81F
notes: FN3 domain

Cyno T-cell Binding 0.2 uM (MFI) [5]: 6650 MFI | Cyno T-cell Binding 2 uM (MFI) [5]: 48300 MFI | Human T-cell Binding 0.2 uM (MFI) [6]: 1024 MFI | Human T-cell Binding 2 uM (MFI) [6]: 9490 MFI | koff (human CD8A-Fc (in house)): 0.00109 s⁻¹
B9: P283DR9P1364_A4 (designed binder)
chain: B4 chain with S32Y, H41Q, V78D, L79W
notes: FN3 domain

Cyno T-cell Binding 0.2 uM (MFI) [5]: 2710 MFI | Cyno T-cell Binding 2 uM (MFI) [5]: 34200 MFI | Human T-cell Binding 0.2 uM (MFI) [6]: 649 MFI | Human T-cell Binding 2 uM (MFI) [6]: 4940 MFI | koff (human CD8A-Fc (in house)): 0.00129 s⁻¹
B10: P283DR9P1364_C10 (designed binder)
chain: B4 chain with S32Q, V40K, H41D, F68A, I70F, Y72W, L79Y, E81N
notes: FN3 domain

Cyno T-cell Binding 0.2 uM (MFI) [5]: 20000 MFI | Cyno T-cell Binding 2 uM (MFI) [5]: 88300 MFI | Human T-cell Binding 0.2 uM (MFI) [6]: 5240 MFI | Human T-cell Binding 2 uM (MFI) [6]: 42300 MFI | koff (human CD8A-Fc (in house)): 0.00043 s⁻¹
B11: P283DR9P1364_D9 (designed binder)
chain: B4 chain with S32G, A34S, V40P, H41L, F68W, Y72F, V78E, L79R, E81W
notes: FN3 domain

Cyno T-cell Binding 0.2 uM (MFI) [5]: 20200 MFI | Cyno T-cell Binding 2 uM (MFI) [5]: 96500 MFI | Human T-cell Binding 0.2 uM (MFI) [6]: 6060 MFI | Human T-cell Binding 2 uM (MFI) [6]: 45500 MFI | koff (human CD8A-Fc (in house)): 0.000109 s⁻¹
B12: P283DR9P1364_B4 (designed binder)
chain: B4 chain with S32A, A34S, V40P, H41P, F68W, Y72L, V78D, L79Q, E81W
notes: FN3 domain

Human T-cell Binding 2 uM (MFI) [1]: 9070 MFI | Cyno T-cell Binding 2 uM (MFI) [2]: 23400 MFI | Cyno T-cell Binding 0.2 uM (MFI) [3]: 3270 MFI | Human T-cell Binding 0.2 uM (MFI) [4]: 2250 MFI | koff (In house human CD8A-Fc): 0.000409 s⁻¹
B13: P283BR9P1363_C4 (designed binder)
chain: LPAPKNLVVSRVTEDSARLSWPIVNTPLHFDSFLIQYQESEKVGEAIVLTVPGSERSYDLTGLKPGTEYTVSIYGVDVQYTATGQPERSNPLSAIFTT
notes: FN3 domain

Human T-cell Binding 2 uM (MFI) [1]: 8650 MFI | Cyno T-cell Binding 2 uM (MFI) [2]: 17200 MFI | Cyno T-cell Binding 0.2 uM (MFI) [3]: 5330 MFI | Human T-cell Binding 0.2 uM (MFI) [4]: 2760 MFI | koff (In house human CD8A-Fc): 0.000253 s⁻¹
B14: P283AR9P1362_D2 (designed binder)
chain: LPAPKNLVVSRVTEDSARLSWQRPKSGFFDSFLIQYQESEKVGEAIVLTVPGSERSYDLTGLKPGTEYTVSIYGVDVKYDIDSRPISSNPLSAIFTT
notes: FN3 domain

Human T-cell Binding 2 uM (MFI) [1]: 5730 MFI | Cyno T-cell Binding 2 uM (MFI) [2]: 11600 MFI | Cyno T-cell Binding 0.2 uM (MFI) [3]: 3660 MFI | Human T-cell Binding 0.2 uM (MFI) [4]: 2270 MFI | koff (In house human CD8A-Fc): 0.00018 s⁻¹
B15: P283AR9P1362_H11 (designed binder)
chain: B14 chain with Q22P, R23K, P24I, K25Q, S26G, G27Q, F28H
notes: FN3 domain

Human T-cell Binding 2 uM (MFI) [1]: 859 MFI | Cyno T-cell Binding 2 uM (MFI) [2]: 3750 MFI | Cyno T-cell Binding 0.2 uM (MFI) [3]: 666 MFI | Human T-cell Binding 0.2 uM (MFI) [4]: 297 MFI | koff (In house human CD8A-Fc): 0.00653 s⁻¹
B16: P282FR9P1361_G9 (designed binder)
chain: LPAPKNLVVSRVTEDSARLSWTAPDAAFDSFGITYWESPYAGEAIVLTVPGSERSYDLTGLKPGTEYGVFILGVKGGYPSAPLSAIFTT
notes: FN3 domain

Cyno T-cell Binding 0.2 uM (MFI) [5]: 3660 MFI | Cyno T-cell Binding 2 uM (MFI) [5]: 37400 MFI | Human T-cell Binding 0.2 uM (MFI) [6]: 2330 MFI | Human T-cell Binding 2 uM (MFI) [6]: 18900 MFI | koff (human CD8A-Fc (in house)): 0.00139 s⁻¹
B17: P283FR9P1366_H11 (designed binder)
chain: LPAPKNLVVSRVTEDSARLSWTAPDAAFDSFQIQYLETAPDGEAIVLTVPGSERSYDLTGLKPGTEYYVWIPGVKGGAFSPLSAIFTT
notes: FN3 domain

Human T-cell Binding 2 uM (MFI) [1]: 13600 MFI | Cyno T-cell Binding 2 uM (MFI) [2]: 38800 MFI | Cyno T-cell Binding 0.2 uM (MFI) [3]: 6480 MFI | Human T-cell Binding 0.2 uM (MFI) [4]: 3500 MFI | koff (In house human CD8A-Fc): 0.00016 s⁻¹
B18: P283AR9P1362_B2 (designed binder)
chain: LPAPKNLVVSRVTEDSARLSWAKHPNSFDSFLIQYQESEKVGEAIVLTVPGSERSYDLTGLKPGTEYTVSIYGVDVVVNELNNPLFSNPLSAIFTT
notes: FN3 domain

Human T-cell Binding 2 uM (MFI) [1]: 15400 MFI | Cyno T-cell Binding 2 uM (MFI) [2]: 35700 MFI | Cyno T-cell Binding 0.2 uM (MFI) [3]: 8380 MFI | Human T-cell Binding 0.2 uM (MFI) [4]: 3700 MFI | koff (In house human CD8A-Fc): 0.000139 s⁻¹
B19: P283AR9P1362_B10 (designed binder)
chain: LPAPKNLVVSRVTEDSARLSWKRRWDSFDSFLIQYQESEKVGEAIVLTVPGSERSYDLTGLKPGTEYTVSIYGVDVEWFNGLPHHSNPLSAIFTT
notes: FN3 domain

Human T-cell Binding 2 uM (MFI) [1]: 8690 MFI | Cyno T-cell Binding 2 uM (MFI) [2]: 20600 MFI | Cyno T-cell Binding 0.2 uM (MFI) [3]: 11600 MFI | Human T-cell Binding 0.2 uM (MFI) [4]: 2890 MFI | koff (In house human CD8A-Fc): 0.000495 s⁻¹
B20: P283BR9P1363_D11 (designed binder)
chain: LPAPKNLVVSRVTEDSARLSWNKKHDGQPTFDSFLIQYQESEKVGEAIVLTVPGSERSYDLTGLKPGTEYTVSIYGVDVVYEGSYPASSNPLSAIFTT
notes: FN3 domain
